The text below walks through data of US20100280227A1 (Genentech, published 2010).

Read-outs that look alike come from different tables or passages of the source.

B2: mouse BR3 extracellular domain (receptor)
chain: MGARRLRVRSQRSRDSSVPTQCNQTECFDPLVRNCVSCELFHTPDTGHTSSLEPGTALQPQEGS
notes: also called mBR3-ECD; mBR-ECD

One assay has as its target T1, mouse BR3-Fc (mouse).
T1 construct: (BR3 ECD fused to a murine Fc); also called mBR3-Fc; murine BR3-Fc
T1 chain: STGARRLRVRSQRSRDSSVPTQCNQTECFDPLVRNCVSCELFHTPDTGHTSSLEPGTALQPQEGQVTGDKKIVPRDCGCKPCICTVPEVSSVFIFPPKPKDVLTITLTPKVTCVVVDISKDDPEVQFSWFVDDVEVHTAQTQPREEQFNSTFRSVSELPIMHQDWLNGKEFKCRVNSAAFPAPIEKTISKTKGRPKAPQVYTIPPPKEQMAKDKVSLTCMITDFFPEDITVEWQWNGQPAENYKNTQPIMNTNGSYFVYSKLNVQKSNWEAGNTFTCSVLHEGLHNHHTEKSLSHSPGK
In words: ELISA: mBAFF-Flag titrated on coated mBR3-Fc, then F(ab)'2 phage #3 (V3) added and detected. For orientation: An ELISA detects its analyte on a solid surface through an enzyme-linked reagent.

For assay [1], the target named is T2, V3-1 Fab.
T2 construct: soluble Fab in SPR
In words: phage competition ELISA, ECD in solution.

Assay [2] has as its target T3, V3-46s Fab.
T3 construct: N31S mutant of V3-46; also called V46s; N31S
Put plainly: phage competition ELISA, ECD in solution.

In assay [3] the target is T2, V3-1 Fab. In words: phage competition ELISA, ECD in solution. The source holds these as a separate data set.
Another assay concerns the target T4, V3-12 Fab.
T4 construct: soluble Fab in SPR
In words: phage competition ELISA, ECD in solution.

For another assay, the target named is T5, V3-13 Fab.
T5 construct: soluble Fab in SPR
In words: phage competition ELISA, ECD in solution.

For another assay, the target named is T6, V3-11 Fab.
T6 construct: soluble Fab in SPR
In words: phage competition ELISA, ECD in solution.

Assay [4] has as its target T3, V3-46s Fab. Put plainly: phage competition ELISA, ECD in solution (printed Phage ID50).
The next assay has as its target T7, V3-46 N31Q phage clone.
T7 construct: also called V3-46q
The assay is described as above.

A further assay has as its target T8, V3-46 N31A phage clone.
T8 construct: also called V3-46a
The description is as above.

For a further assay, the target named is T9, V3-46 phage clone.
T9 construct: also called V3-46 WT; clone 46
Described as above.

For assay [5], the target named is T3, V3-46s Fab. Put plainly: phage competition ELISA, ECD in solution (printed Phage50).
In another assay the target is T10, V3-46s-9 Fab.
T10 construct: soluble Fab in SPR; also called V46s-9
The assay is described as above.

A further assay addresses T11, V3-46s-42 Fab.
T11 construct: soluble Fab in SPR; also called V46s-42
The assay is described as above.

Assay [6] has as its target T12, human BR3 expressed on cells (human, UniProt Q96RJ3 1-184).
T12 construct: whole, on cells; also called BR3 on BJAB cells; cell surface BR3
In words: BJAB cells, competition with biotin-BAFF.

The target of assay [7] is T13, mouse BR3 (form in the mapping assay not stated) (mouse, UniProt Q9D8D0 1-71, limits assumed).
T13 construct: May be the same as m2, m6 or m10
T13 sequence (looked up): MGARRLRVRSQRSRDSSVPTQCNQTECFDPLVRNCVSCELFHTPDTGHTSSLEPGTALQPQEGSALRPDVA
In words: competition ELISA on murine BR3 against biotinylated B9C11.

The target of assay [8] is T12, human BR3 expressed on cells. In words: BJAB cells, direct binding.
The target is the same in assay [9]. Put plainly: BJAB cells, direct binding. This is another data set of the same source.
In assay [10] the target is T14, human BR3 displayed on phage, D26 alanine-scan mutant (human, UniProt Q96RJ3 1-61, limits assumed).
T14 construct: One position of the shotgun alanine scan of BR3 on phage
In words: shotgun alanine scan of phage-displayed BR3; F against wild type.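 Also: Phage-displayed BR3 shotgun alanine libraries, two selection rounds for anti-BR3 antibody binding, normalized to a display selection, F above 1 marks a harmful substitution, below 1 a beneficial one.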

For assay [11], the target named is human BR3 displayed on phage, mutated at A34 in the alanine scan (human, UniProt Q96RJ3 1-61, limits assumed). The description is as above.
The target of assay [12] is T15, human BR3 displayed on phage, P41 alanine-scan mutant (human, UniProt Q96RJ3 1-61, limits assumed).
T15 construct: One position of the shotgun alanine scan of BR3 on phage
Described as above.

For assay [13], the target named is T16, human BR3 displayed on phage, L27 alanine-scan mutant (human, UniProt Q96RJ3 1-61, limits assumed).
T16 construct: One position of the shotgun alanine scan of BR3 on phage
Described as above.

Assay [14] addresses T17, human BR3 displayed on phage, L28 alanine-scan mutant (human, UniProt Q96RJ3 1-61, limits assumed).
T17 construct: One position of the shotgun alanine scan of BR3 on phage
Described as above.

The target in assay [15] is T18, human BR3 displayed on phage, G36 alanine-scan mutant (human, UniProt Q96RJ3 1-61, limits assumed).
T18 construct: One position of the shotgun alanine scan of BR3 on phage
The assay is described as above.

Assay [16] has as its target T19, human BR3 displayed on phage, F25 alanine-scan mutant (human, UniProt Q96RJ3 1-61, limits assumed).
T19 construct: One position of the shotgun alanine scan of BR3 on phage
The description is as above.

Assay [17] has as its target T20, human BR3 displayed on phage, T17 alanine-scan mutant (human, UniProt Q96RJ3 1-61, limits assumed).
T20 construct: One position of the shotgun alanine scan of BR3 on phage; the F value gives the effect of this change against wild type; See m1 for the parent
The description is as above.

Assay [18] deals with T21, human BR3 displayed on phage, H31 alanine-scan mutant (human, UniProt Q96RJ3 1-61, limits assumed).
T21 construct: One position of the shotgun alanine scan of BR3 on phage
Described as above.

Assay [19] concerns the target T22, human BR3 displayed on phage, E23 alanine-scan mutant (human, UniProt Q96RJ3 1-61, limits assumed).
T22 construct: One position of the shotgun alanine scan of BR3 on phage
The assay is described as above.

Assay [20] deals with T23, human BR3 displayed on phage, L38 alanine-scan mutant (human, UniProt Q96RJ3 1-61, limits assumed).
T23 construct: One position of the shotgun alanine scan of BR3 on phage
The description is as above.

Assay [21] has as its target human BR3 displayed on phage, mutated at A22 in the alanine scan (human, UniProt Q96RJ3 1-61, limits assumed). The assay is described as above.
Assay [22] has as its target T24, human BR3 displayed on phage, P18 alanine-scan mutant (human, UniProt Q96RJ3 1-61, limits assumed).
T24 construct: One position of the shotgun alanine scan of BR3 on phage
The assay is described as above.

The target in assay [23] is T25, human BR3 displayed on phage, V20 alanine-scan mutant (human, UniProt Q96RJ3 1-61, limits assumed).
T25 construct: One position of the shotgun alanine scan of BR3 on phage
The assay is described as above.

Assay [24] concerns the target T26, human BR3 displayed on phage, V29 alanine-scan mutant (human, UniProt Q96RJ3 1-61, limits assumed).
T26 construct: One position of the shotgun alanine scan of BR3 on phage
The assay is described as above.

Assay [25] concerns the target T27, human BR3 displayed on phage, T40 alanine-scan mutant (human, UniProt Q96RJ3 1-61, limits assumed).
T27 construct: One position of the shotgun alanine scan of BR3 on phage
The description is as above.

Assay [26] concerns the target T28, human BR3 displayed on phage, R42 alanine-scan mutant (human, UniProt Q96RJ3 1-61, limits assumed).
T28 construct: One position of the shotgun alanine scan of BR3 on phage
The assay is described as above.

Assay [27] has as its target T29, human BR3 displayed on phage, V33 alanine-scan mutant (human, UniProt Q96RJ3 1-61, limits assumed).
T29 construct: One position of the shotgun alanine scan of BR3 on phage
The description is as above.

Assay [28] has as its target T30, human BR3 displayed on phage, L37 alanine-scan mutant (human, UniProt Q96RJ3 1-61, limits assumed).
T30 construct: One position of the shotgun alanine scan of BR3 on phage
Described as above.

For assay [29], the target named is T31, human BR3 displayed on phage, R39 alanine-scan mutant (human, UniProt Q96RJ3 1-61, limits assumed).
T31 construct: One position of the shotgun alanine scan of BR3 on phage
The assay is described as above.

For assay [30], the target named is T32, human BR3 displayed on phage, P21 alanine-scan mutant (human, UniProt Q96RJ3 1-61, limits assumed).
T32 construct: One position of the shotgun alanine scan of BR3 on phage
The assay is described as above.

The target of assay [31] is T12, human BR3 expressed on cells. Put plainly: BJAB cells, competition with biotin-BAFF. The source holds these as a separate data set.
Assay [32] deals with B2. Put plainly: SPR, IgG on chip, BR3 ECD in solution.
Assay [33] addresses T33, human BR3 extracellular domain (human, UniProt Q96RJ3 1-61).
T33 construct: biotinylated where used as tracer; also called hBR3-ECD; BR3-ECD
Put plainly: SPR, IgG on chip, BR3 ECD in solution.

Assay [34] has as its target T13, mouse BR3 (form in the mapping assay …). Put plainly: competition ELISA on murine BR3 against biotinylated V3-1m.
For assay [35], the target named is T34, murine BR3 expressed on cells (mouse, UniProt Q9D8D0 1-175).
T34 construct: whole, on cells; also called murine BR3 on BHK cells; mouse BR3
T34 sequence (looked up): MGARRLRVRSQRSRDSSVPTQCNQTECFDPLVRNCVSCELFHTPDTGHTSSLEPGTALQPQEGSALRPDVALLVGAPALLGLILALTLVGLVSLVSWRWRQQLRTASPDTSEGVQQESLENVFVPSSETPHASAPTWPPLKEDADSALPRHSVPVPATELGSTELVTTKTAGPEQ
In words: BHK cells expressing murine BR3, competitive binding assay against BAFF.

T4 sequence (VH, as listed by the source, chain 1 of 2): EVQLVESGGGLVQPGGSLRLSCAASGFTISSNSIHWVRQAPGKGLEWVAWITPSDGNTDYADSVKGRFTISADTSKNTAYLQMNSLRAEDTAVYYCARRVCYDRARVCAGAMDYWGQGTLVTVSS
T4 sequence (VL, as listed by the source, chain 2 of 2): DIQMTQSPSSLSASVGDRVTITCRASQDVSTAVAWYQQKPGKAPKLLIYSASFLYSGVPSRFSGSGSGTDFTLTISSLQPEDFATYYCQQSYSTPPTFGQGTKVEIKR
T6 sequence (VH, as listed by the source, chain 1 of 2): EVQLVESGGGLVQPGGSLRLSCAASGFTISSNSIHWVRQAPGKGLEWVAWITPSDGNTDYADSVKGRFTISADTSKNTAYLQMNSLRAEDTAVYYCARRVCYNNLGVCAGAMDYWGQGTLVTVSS
T6 sequence (VL, as listed by the source, chain 2 of 2): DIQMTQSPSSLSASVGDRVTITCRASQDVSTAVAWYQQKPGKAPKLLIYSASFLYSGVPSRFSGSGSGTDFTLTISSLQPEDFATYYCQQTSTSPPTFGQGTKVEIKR
T10 sequence (VH, as listed by the source, chain 1 of 2): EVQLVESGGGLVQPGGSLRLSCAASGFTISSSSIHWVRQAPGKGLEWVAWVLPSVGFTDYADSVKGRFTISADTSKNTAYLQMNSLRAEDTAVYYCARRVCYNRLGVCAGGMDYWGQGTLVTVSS
T10 sequence (VL, as listed by the source, chain 2 of 2): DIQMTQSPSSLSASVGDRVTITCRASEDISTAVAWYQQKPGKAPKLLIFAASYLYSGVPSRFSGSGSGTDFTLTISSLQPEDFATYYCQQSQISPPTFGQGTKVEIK
T11 sequence (VL, as listed by the source, chain 2 of 2): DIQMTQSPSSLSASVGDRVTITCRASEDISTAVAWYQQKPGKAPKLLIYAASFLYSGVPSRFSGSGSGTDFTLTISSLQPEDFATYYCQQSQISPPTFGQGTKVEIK
T7 sequence (VH, as listed by the source, chain 1 of 2): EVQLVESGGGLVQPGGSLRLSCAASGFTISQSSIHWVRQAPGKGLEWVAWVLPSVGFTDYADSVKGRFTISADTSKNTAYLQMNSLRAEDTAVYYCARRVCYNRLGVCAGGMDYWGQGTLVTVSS
T7 sequence (VL, as listed by the source, chain 2 of 2): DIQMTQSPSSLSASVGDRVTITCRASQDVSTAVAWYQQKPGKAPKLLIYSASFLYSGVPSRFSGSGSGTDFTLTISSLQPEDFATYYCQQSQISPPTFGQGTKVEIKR

B1: mBAFF-Flag protein (ligand, mouse, UniProt Q9WU72 127-309, looked up, not shown: small tags and cut ends)
chain: AFQGPEETEQDVDLSAPPAPCLPGCRHSQHDDNGMNLRNIIQDCLQLIADSDTPTIRKGTYTFVPWLLSFKRGNALEEKENKIVVRQTGYFFIYSQVLYTDPIFAMGHVIQRKKVHVFGDELSLVTLFRCIQNMPKTLPNNSCYSAGIARLEEGDEIQLAIPRENAQISRNGDDTFFGALKLL
As for B1, in the assay with mouse BR3-Fc, the “IC50 (read off the curve)” value was roughly 2 nM.

The IC50 is the concentration that gives 50% inhibition. As for B2, the IC50 was found to be 5.4 nM with V3-1 Fab [1]; 1.53 nM with V3-46s Fab [2]; 5.4 nM with V3-1 Fab [3]; 57 nM with V3-12 Fab; 33 nM in the assay with V3-13 Fab; 8.4 nM with V3-11 Fab. Further, the IC50 with V3-46s Fab [4] was 1.53 nM; in the assay with V3-46 N31Q phage clone, 2.44 nM; in the assay with V3-46 N31A phage clone, 2.89 nM; with V3-46 phage clone it was 1.42 nM; in the assay with V3-46s Fab [5], 1.7 nM; in the assay with V3-46s-9 Fab it was 0.18 nM. The same molecule returned an IC50 with V3-46s-42 Fab of 0.23 nM.

B3: V3-1m (antibody, mouse IgG2a, V domains shown)
VH: EVQLVESGGGLVQPGGSLRLSCAASGFTISSNSIHWVRQAPGKGLEWVAWITPSDGNTDYADSVKGRFTISADTSKNTAYLQMNSLRAEDTAVYYCARRVCYNRLGVCAGGMDYWGQGTLVTVSS
VL: DIQMTQSPSSLSASVGDRVTITCRASQDVSTAVAWYQQKPGKAPKLLIYSASFLYSGVPSRFSGSGSGTDFTLTISSLQPEDFATYYCQQSRITPPTFGQGTKVEIKR
notes: also called mV3-1; V3-1 (IgG)
As usually defined, the EC50 is the concentration that produces a half-maximal response. Lower therefore signals a more potent agent. A word on the Kd: it is the equilibrium constant for the complex coming apart. A lower Kd goes with higher affinity. As a reminder, the koff is the first-order rate constant of dissociation. Low values mean a long-lived complex, high ones a short-lived complex. One may read the kon as a measure of how fast the partners come together. Low readings indicate slower complex formation, high ones faster complex formation. Regarding B3, the IC50 turned out to be 2.47 nM in assay [6], 8.9 nM in [31] and 36.2 nM in assay [35]. Also, the figures for the “IC50 (read off the curve)” value in [7] and in [34] were roughly 800 ng/mL and roughly 600 ng/mL, respectively. Besides, the results for the EC50 in assay [8] and in [9] were 3.37 nM and 4.3 nM, respectively. Besides, the F value is 8.7 in assay [10]; 13 in [11]; 1.6 in assay [12]; 1.4 in assay [13]; 98 in [14]; 0.7 in assay [15]. Also, the F value in [16] was determined as 21; in assay [17] it was 0.5; in assay [18] it was 0.1; in [19], 2.4; in [20], 1.4; in assay [21] it was 0.7. The F value in assay [22] amounted to 0.8; in assay [23], 0.9; in assay [24] it was 92; in assay [25], 0.6; in assay [26], 0.9; in assay [27], 14. For the same molecule, the F value worked out at 0.7 in assay [28], 0.4 in assay [29] and 0.6 in assay [30]. The Kd in [32] turned out to be 1.56 nM; in assay [33], 0.64 nM. In addition, the koff in assay [32] turned out to be 0.000131 s⁻¹; in assay [33], 0.000171 s⁻¹. Besides, the values for the kon in [32] and in assay [33] were 84000 M⁻¹ s⁻¹ and 267000 M⁻¹ s⁻¹, respectively.
